Laboratory results reported in publication PMC2853223 (ACS chemical biology, 2009).

T1: PikAIII ACPdd (N-terminally His-tagged discrete C-terminal docking domain of PikAIII) (UniProt Q9ZGI3 1479-1562)
T1 sequence (looked up): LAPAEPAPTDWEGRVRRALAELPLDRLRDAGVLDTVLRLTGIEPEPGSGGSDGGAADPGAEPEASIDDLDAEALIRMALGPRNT

B1: PikAIV KSdd (discrete N-terminal docking domain of PikAIV, tagless) (domain or fragment, UniProt Q9ZGI2 1-37, looked up)
chain: MTSSNEQLVDALRASLKENEELRKESRRRADRRQEPM
B2: PikAIII ACPdd-FL (PikAIII ACPdd with an added C-terminal cysteine labelled with BODIPY-FL) (domain or fragment)
chain: LAPAEPAPTDWEGRVRRALAELPLDRLRDAGVLDTVLRLTGIEPEPGSGGSDGGAADPGAEPEASIDDLDAEALIRMALGPRNTC
modifications: BODIPY-FL (iodoacetamide) on the added C-terminal cysteine
B3: P3P4dock (amino acids 1534-1562 of PikAIII ACPdd fused to amino acids 1-37 of the KSdd of PikAIV) (other)
chain: SNADPGAEPEASIDDLDAEALIRMALGPRNTMTSSNEQLVDALRASLKENEELRKESRRRADRRQEPM
B4: PikAIII ACPdd residues 1534-1562 (the PikAIII part of P3P4dock) (domain or fragment, UniProt Q9ZGI3 1534-1562, looked up)
chain: ADPGAEPEASIDDLDAEALIRMALGPRNT
B5: PikAIV KSdd residues 1-37 (the PikAIV part of P3P4dock) (domain or fragment, UniProt Q9ZGI2 1-37, looked up)
chain: B1 chain

Assays:
[1] = molecular target: T1, PikAIII ACPdd (N-terminally His-tagged …); test: SPR
PikAIV full module = PikAIV full module (post-translational modification of its ACP domain (grown in BAP1 E. coli cells)); test: fluorescence polarisation
crystal structure = molecular target: the molecule itself; test: crystal structure
[2] = molecular target: B5; test: crystal structure

B1
Kd [1]: 73 ± 43 µM | koff [1]: 0.21 ± 0.03 s⁻¹ | kon [1]: 3000 ± 1800 M⁻¹ s⁻¹

B2
Kd (PikAIV full module): 5 ± 1 µM

B3
binding result (crystal structure): binds

B4
binding result [2]: binds

B5
binding result (crystal structure): binds
